The chains are these.
T1: EsCas13d, nuclease-dead (Eubacterium siraeum, UniProt B0MS50, R295A;H300A;R849A;H854A)
T1 sequence: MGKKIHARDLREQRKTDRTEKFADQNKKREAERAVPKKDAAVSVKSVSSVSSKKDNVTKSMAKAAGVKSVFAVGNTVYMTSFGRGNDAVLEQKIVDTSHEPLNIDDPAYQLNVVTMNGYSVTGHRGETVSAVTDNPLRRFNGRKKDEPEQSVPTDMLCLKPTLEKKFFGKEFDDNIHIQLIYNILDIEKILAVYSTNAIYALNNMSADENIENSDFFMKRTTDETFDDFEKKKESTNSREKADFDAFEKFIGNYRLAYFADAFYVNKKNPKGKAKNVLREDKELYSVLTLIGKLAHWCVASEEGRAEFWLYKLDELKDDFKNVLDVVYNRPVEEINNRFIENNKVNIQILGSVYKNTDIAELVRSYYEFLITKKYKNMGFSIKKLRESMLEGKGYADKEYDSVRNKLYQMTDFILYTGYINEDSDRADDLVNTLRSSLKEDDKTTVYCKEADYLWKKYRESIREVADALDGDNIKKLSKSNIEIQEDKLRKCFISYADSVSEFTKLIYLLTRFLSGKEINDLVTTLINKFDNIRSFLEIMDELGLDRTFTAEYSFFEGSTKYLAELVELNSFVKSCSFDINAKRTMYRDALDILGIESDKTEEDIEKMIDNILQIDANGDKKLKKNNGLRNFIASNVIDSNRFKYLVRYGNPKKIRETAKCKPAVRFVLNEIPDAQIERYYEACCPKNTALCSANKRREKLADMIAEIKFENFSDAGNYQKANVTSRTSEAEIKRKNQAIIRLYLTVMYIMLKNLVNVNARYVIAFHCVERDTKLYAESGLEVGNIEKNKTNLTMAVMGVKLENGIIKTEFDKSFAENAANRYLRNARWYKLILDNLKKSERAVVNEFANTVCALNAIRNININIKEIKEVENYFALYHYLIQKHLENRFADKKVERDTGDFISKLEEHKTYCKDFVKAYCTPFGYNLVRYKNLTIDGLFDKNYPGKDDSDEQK

B1: target 1 A16C,C21A (mixed)
RNA 1: CACCCGUGCAAAAAUGCAGGGGUCUAAAACUGAGCGGAUAACCUCUCUAUGG
RNA 2: GGGAAUGGAUCCACAUCUACGAAUUCGUACAAUAGCGAGGUUAUCCGCUCACCGAGAUCGGAAGAGCACACGU
B2: target 1 C6U,A16U (mixed)
RNA 1: CACCCGUGCAAAAAUGCAGGGGUCUAAAACUGAGCGGAUAACCUCUCUAUGG
RNA 2: GGGAAUGGAUCCACAUCUACGAAUUCGUACCAUAGUGAGGUUAUCUGCUCACCGAGAUCGGAAGAGCACACGU
B3: target 1 del7,del16 (mixed)
RNA 1: CACCCGUGCAAAAAUGCAGGGGUCUAAAACUGAGCGGAUAACCUCUCUAUGG
RNA 2: GGGAAUGGAUCCACAUCUACGAAUUCGUACCAUAGGAGGUUAUCGCUCACCGAGAUCGGAAGAGCACACGU
B4: target 2 MT 5'PFS GGU 3'PFS AUG (mixed)
RNA 1: CACCCGUGCAAAAUUGCAGGGGUCUAAAACCUUCUCCAAAUUGUUUCAUCCU
RNA 2: GGGAAUGGAUCCACAUCUACGAAUUCGGUAGGAUGAAACAAUUUGGAGAAGAUGAGAUCGGAAGAGCACACGU
B5: target 2 MT 5'PFS GAU 3'PFS ACU (mixed)
RNA 1: CACCCGUGCAAAAUUGCAGGGGUCUAAAACCUUCUCCAAAUUGUUUCAUCCU
RNA 2: GGGAAUGGAUCCACAUCUACGAAUUCGAUAGGAUGAAACAAUUUGGAGAAGACUAGAUCGGAAGAGCACACGU
B6: target 2 MT 5'PFS GUG 3'PFS UCU (mixed)
RNA 1: CACCCGUGCAAAAUUGCAGGGGUCUAAAACCUUCUCCAAAUUGUUUCAUCCU
RNA 2: GGGAAUGGAUCCACAUCUACGAAUUCGUGAGGAUGAAACAAUUUGGAGAAGUCUAGAUCGGAAGAGCACACGU
B7: target 2 MT 5'PFS AUU 3'PFS UCU (mixed)
RNA 1: CACCCGUGCAAAAUUGCAGGGGUCUAAAACCUUCUCCAAAUUGUUUCAUCCU
RNA 2: GGGAAUGGAUCCACAUCUACGAAUUCAUUAGGAUGAAACAAUUUGGAGAAGUCUAGAUCGGAAGAGCACACGU
B8: target 2 MT 5'PFS UAC 3'PFS AAC (mixed)
RNA 1: CACCCGUGCAAAAUUGCAGGGGUCUAAAACCUUCUCCAAAUUGUUUCAUCCU
RNA 2: GGGAAUGGAUCCACAUCUACGAAUUCUACAGGAUGAAACAAUUUGGAGAAGAACAGAUCGGAAGAGCACACGU
B9: target 2 MT 5'PFS GAU 3'PFS ACG (mixed)
RNA 1: CACCCGUGCAAAAUUGCAGGGGUCUAAAACCUUCUCCAAAUUGUUUCAUCCU
RNA 2: GGGAAUGGAUCCACAUCUACGAAUUCGAUAGGAUGAAACAAUUUGGAGAAGACGAGAUCGGAAGAGCACACGU
B10: target 2 MT 5'PFS GAU 3'PFS ACC (mixed)
RNA 1: CACCCGUGCAAAAUUGCAGGGGUCUAAAACCUUCUCCAAAUUGUUUCAUCCU
RNA 2: GGGAAUGGAUCCACAUCUACGAAUUCGAUAGGAUGAAACAAUUUGGAGAAGACCAGAUCGGAAGAGCACACGU
B11: target 2 MT 5'PFS GUU 3'PFS UUU (mixed)
RNA 1: CACCCGUGCAAAAUUGCAGGGGUCUAAAACCUUCUCCAAAUUGUUUCAUCCU
RNA 2: GGGAAUGGAUCCACAUCUACGAAUUCGUUAGGAUGAAACAAUUUGGAGAAGUUUAGAUCGGAAGAGCACACGU
B12: target 2 MT 5'PFS CAU 3'PFS CUC (mixed)
RNA 1: CACCCGUGCAAAAUUGCAGGGGUCUAAAACCUUCUCCAAAUUGUUUCAUCCU
RNA 2: GGGAAUGGAUCCACAUCUACGAAUUCCAUAGGAUGAAACAAUUUGGAGAAGCUCAGAUCGGAAGAGCACACGU
B13: target 2 MT 5'PFS CUA 3'PFS CCA (mixed)
RNA 1: CACCCGUGCAAAAUUGCAGGGGUCUAAAACCUUCUCCAAAUUGUUUCAUCCU
RNA 2: GGGAAUGGAUCCACAUCUACGAAUUCCUAAGGAUGAAACAAUUUGGAGAAGCCAAGAUCGGAAGAGCACACGU
B14: target 2 MT 5'PFS CCU 3'PFS UCC (mixed)
RNA 1: CACCCGUGCAAAAUUGCAGGGGUCUAAAACCUUCUCCAAAUUGUUUCAUCCU
RNA 2: GGGAAUGGAUCCACAUCUACGAAUUCCCUAGGAUGAAACAAUUUGGAGAAGUCCAGAUCGGAAGAGCACACGU
B15: target 2 MT 5'PFS CAU 3'PFS CUG (mixed)
RNA 1: CACCCGUGCAAAAUUGCAGGGGUCUAAAACCUUCUCCAAAUUGUUUCAUCCU
RNA 2: GGGAAUGGAUCCACAUCUACGAAUUCCAUAGGAUGAAACAAUUUGGAGAAGCUGAGAUCGGAAGAGCACACGU
B16: target 2 MT 5'PFS GUG 3'PFS UCA (mixed)
RNA 1: CACCCGUGCAAAAUUGCAGGGGUCUAAAACCUUCUCCAAAUUGUUUCAUCCU
RNA 2: GGGAAUGGAUCCACAUCUACGAAUUCGUGAGGAUGAAACAAUUUGGAGAAGUCAAGAUCGGAAGAGCACACGU
B17: target 2 MT 5'PFS UAC 3'PFS AAG (mixed)
RNA 1: CACCCGUGCAAAAUUGCAGGGGUCUAAAACCUUCUCCAAAUUGUUUCAUCCU
RNA 2: GGGAAUGGAUCCACAUCUACGAAUUCUACAGGAUGAAACAAUUUGGAGAAGAAGAGAUCGGAAGAGCACACGU
B18: target 2 MT 5'PFS GGU 3'PFS AUU (mixed)
RNA 1: CACCCGUGCAAAAUUGCAGGGGUCUAAAACCUUCUCCAAAUUGUUUCAUCCU
RNA 2: GGGAAUGGAUCCACAUCUACGAAUUCGGUAGGAUGAAACAAUUUGGAGAAGAUUAGAUCGGAAGAGCACACGU
B19: target 2 MT 5'PFS UAC 3'PFS CCC (mixed)
RNA 1: CACCCGUGCAAAAUUGCAGGGGUCUAAAACCUUCUCCAAAUUGUUUCAUCCU
RNA 2: GGGAAUGGAUCCACAUCUACGAAUUCUACAGGAUGAAACAAUUUGGAGAAGCCCAGAUCGGAAGAGCACACGU
B20: target 2 MT 5'PFS UAC 3'PFS CCA (mixed)
RNA 1: CACCCGUGCAAAAUUGCAGGGGUCUAAAACCUUCUCCAAAUUGUUUCAUCCU
RNA 2: GGGAAUGGAUCCACAUCUACGAAUUCUACAGGAUGAAACAAUUUGGAGAAGCCAAGAUCGGAAGAGCACACGU
B21: target 2 MT 5'PFS UAC 3'PFS AAU (mixed)
RNA 1: CACCCGUGCAAAAUUGCAGGGGUCUAAAACCUUCUCCAAAUUGUUUCAUCCU
RNA 2: GGGAAUGGAUCCACAUCUACGAAUUCUACAGGAUGAAACAAUUUGGAGAAGAAUAGAUCGGAAGAGCACACGU
B22: target 2 MT 5'PFS UAC 3'PFS CCG (mixed)
RNA 1: CACCCGUGCAAAAUUGCAGGGGUCUAAAACCUUCUCCAAAUUGUUUCAUCCU
RNA 2: GGGAAUGGAUCCACAUCUACGAAUUCUACAGGAUGAAACAAUUUGGAGAAGCCGAGAUCGGAAGAGCACACGU
B23: target 2 MT 5'PFS CCU 3'PFS UCU (mixed)
RNA 1: CACCCGUGCAAAAUUGCAGGGGUCUAAAACCUUCUCCAAAUUGUUUCAUCCU
RNA 2: GGGAAUGGAUCCACAUCUACGAAUUCCCUAGGAUGAAACAAUUUGGAGAAGUCUAGAUCGGAAGAGCACACGU
B24: target 2 MT 5'PFS UAC 3'PFS AAA (mixed)
RNA 1: CACCCGUGCAAAAUUGCAGGGGUCUAAAACCUUCUCCAAAUUGUUUCAUCCU
RNA 2: GGGAAUGGAUCCACAUCUACGAAUUCUACAGGAUGAAACAAUUUGGAGAAGAAAAGAUCGGAAGAGCACACGU
B25: target 2 MT 5'PFS GAU 3'PFS ACA (mixed)
RNA 1: CACCCGUGCAAAAUUGCAGGGGUCUAAAACCUUCUCCAAAUUGUUUCAUCCU
RNA 2: GGGAAUGGAUCCACAUCUACGAAUUCGAUAGGAUGAAACAAUUUGGAGAAGACAAGAUCGGAAGAGCACACGU
B26: target 2 MT 5'PFS GUU 3'PFS UUC (mixed)
RNA 1: CACCCGUGCAAAAUUGCAGGGGUCUAAAACCUUCUCCAAAUUGUUUCAUCCU
RNA 2: GGGAAUGGAUCCACAUCUACGAAUUCGUUAGGAUGAAACAAUUUGGAGAAGUUCAGAUCGGAAGAGCACACGU
B27: target 2 MT 5'PFS CUA 3'PFS CCU (mixed)
RNA 1: CACCCGUGCAAAAUUGCAGGGGUCUAAAACCUUCUCCAAAUUGUUUCAUCCU
RNA 2: GGGAAUGGAUCCACAUCUACGAAUUCCUAAGGAUGAAACAAUUUGGAGAAGCCUAGAUCGGAAGAGCACACGU

For this series, the target named is T1, EsCas13d, nuclease-dead. Description: crRNA (strand 1, pre-loaded); Mg2+; 40 mM Tris-HCl pH 7.5, 150 mM NaCl, 6 mM MgCl2, 1 mM DTT, 0.1% Tween-20, 0.2 mg/ml BSA; 25 C; 10 min per concentration, then washed. The settings on record: tags: His6-TwinStrep-SUMO cleaved; N-terminal SNAP kept (SNAP-Surface 488); label: 3' end held by stalled T7 RNA polymerase.
As for B1, the Kd (commonly the free concentration of one partner at which half of the binding sites on the other are occupied at equilibrium, for simple one-to-one binding) is 66 ± 11 nM. In the case of B2 it was 37.1 ± 2.6 nM.

B3 yielded a Kd of 45 ± 6 nM. In the case of B4 it was 16.1 ± 1.6 nM; in that of B5, 20.1 ± 3.2 nM.

B6: the affinity, expressed as Kd, was 18.9 ± 1.8 nM. With B7 the figure was 10.7 ± 0.6 nM; with B8, 11 ± 4 nM; with B9, 17.2 ± 2.2 nM. In the case of B10 it was 17.7 ± 3.4 nM; in that of B11, 51 ± 11 nM. B12: binding was characterised by a dissociation constant (Kd) of 6.8 ± 0.8 nM. With B13 the figure was 2.9 ± 1 nM; with B14, 1.74 ± 0.18 nM; with B15, 5.4 ± 0.8 nM. In the case of B16 it was 17.3 ± 2.7 nM; in that of B17, 5.8 ± 1 nM; in that of B18, 14.8 ± 1.6 nM. Consider B19, for which the Kd was around 19 nM.

B20 yielded a Kd of 17 ± 4 nM.

For the molecule B21, the dissociation constant Kd came out at 10 ± 4 nM. With B22 the figure was 6.1 ± 1.4 nM; with B23, 2.71 ± 0.32 nM. With B24 the figure was 6 ± 1.4 nM; with B25, 10.6 ± 1.6 nM; with B26, 31 ± 5 nM. The molecule B27 gave a dissociation constant Kd of around 49 nM.
